Source: the supplement of paper PMC10126150
± gives the standard deviation of the averaged measurements.

System: ATP
Experiment: switch fluorescence ratio, 500 uM ATP over buffer (Cy3 cluster intensity, sum of 5 cycles each) (fold (ratio)); higher = stronger signal-on switching upon ATP binding; sequences stand for … in TCGTCGGCAGCGTCAGATGTGTATAAGAGACAGTTTTTTTTTTTTTTTTTTTTTTTTT…TC
Conditions: aptamer strand: ATP DNA aptamer (quencher-CACCTGGGGGAGTATTGCGGAGGAAGG + anchor), 100 nM annealed; ATP concentration: 500 uM
How it was run: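 For every switch-domain sequence, the fluorescence ratio is the mean of per-cluster values, each being summed target-cycle Cy3 intensity over summed buffer-cycle Cy3 intensity. Clusters outside 100-1000 RFU were excluded. On a modified Illumina MiSeq flow-cell, the Cy3-labelled switching-strand clusters were annealed to 100 nM quencher-labelled ATP aptamer, imaged in selection buffer and then after 15 min with 500 uM ATP at 22 °C. Five such cycles were run, with NaOH stripping and re-annealing between them.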
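Also: ATP exposure 15 min at 22 °C before imaging.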

Row | Sequence | switch fluorescence ratio
1 | ATTTTGGCGT | 0.982 ± 0.037
2 | ATTTTGGGTC | 0.991 ± 0.047
3 | ATTTTGGGTG | 1.08 ± 0.049
4 | ATTTTGTTCG | 1.04 ± 0.011
5 | ATTTTGTTTC | 0.987 ± 0.032
6 | ATTTTGTTTT | 1.01 ± 0.061
7 | ATTTTTACAG | 1.03 ± 0.032
8 | ATTTTTACGG | 1.01 ± 0.013
9 | ATTTTTACTT | 0.974 ± 0.032
10 | ATTTTTCAGC | 1.003 ± 0.0042
11 | ATTTTTGACA | 1.001 ± 0.0037
12 | ATTTTTGATG | 1.02 ± 0.073
13 | ATTTTTGGCT | 0.995 ± 0.042
14 | ATTTTTGTCA | 0.985 ± 0.015
15 | ATTTTTTACA | 1.082 ± 0.0069
16 | ATTTTTTGAC | 0.9915 ± 0.0011
17 | ATTTTTTGGT | 0.9981 ± 0.006
18 | ATTTTTTGTT | 0.976 ± 0.047
19 | ATTTTTTTAG | 0.988 ± 0.02
20 | CAAAAAAAGA | 0.986 ± 0.067
21 | CAAAAAACCT | 1.55 ± 0.55
22 | CAAAACGTAG | 1.01 ± 0.025

Row | Sequence | switch fluorescence ratio
23 | CAAAAGGGAA | 1.02 ± 0.024
24 | CAAAAGGGCC | 1.021 ± 0.0042
25 | CAAAATGCTT | 0.99 ± 0.047
26 | CAAACCAGGA | 1.09 ± 0.07
27 | CAAAGAAAAT | 0.9943 ± 0.0062
28 | CAAAGAGGCG | 1.02 ± 0.057
29 | CAAAGGGGTG | 1.03 ± 0.044
30 | CAAAGGTACA | 1.008 ± 0.0063
31 | CAAAGGTTGC | 1 ± 0.013
32 | CAAAGTTGGA | 1.01 ± 0.017
33 | CAAATAACAT | 1.01 ± 0.015
34 | CAAATAAGTA | 1.01 ± 0.033
35 | CAAATAGTGG | 0.943 ± 0.034
36 | CAAATATACG | 1.23 ± 0.23
37 | CAAATCTTGT | 1.03 ± 0.027
38 | CAAATGGCTG | 1.04 ± 0.074
39 | CAAATGGTTA | 0.974 ± 0.01
40 | CAAATGTGCT | 0.986 ± 0.015
41 | CAAATTCGAG | 0.984 ± 0.0033
42 | CAAATTCGTC | 1.07 ± 0.015
43 | CAAATTGGTG | 1.083 ± 0.0018
44 | CAAATTTCAT | 0.985 ± 0.023

Row | Sequence | switch fluorescence ratio
45 | CAACAAGGCA | 1.02 ± 0.0071
46 | CAACATCTAT | 1.02 ± 0.053
47 | CAACGAAGTG | 1 ± 0.069
48 | CAACGCGTTG | 1 ± 0.013
49 | CAACGGACTA | 1.246 ± 0.0095
50 | CAACGGTTGG | 1.01 ± 0.045
51 | CAACGTGGGG | 0.99 ± 0.017
52 | CAACGTTTTT | 1.01 ± 0.037
53 | CAACTAAAAA | 1.01 ± 0.032
54 | CAACTAAATT | 1.01 ± 0.025
55 | CAACTCTCTG | 1 ± 0.038
56 | CAACTGCGTG | 0.989 ± 0.013
57 | CAACTTCCCC | 1.22 ± 0.1
58 | CAAGAAAGTT | 0.964 ± 0.034
59 | CAAGAACGGT | 0.969 ± 0.0077
60 | CAAGACTTGC | 1.03 ± 0.045
61 | CAAGAGCGGT | 1.02 ± 0.047
62 | CAAGAGGGGC | 1 ± 0.026
63 | CAAGATTTAT | 0.99 ± 0.023
64 | CAAGGAAGAT | 1.02 ± 0.014
65 | CAAGGACGAG | 1.02 ± 0.041
66 | CAAGGATAGG | 0.9984 ± 0.0084

Row | Sequence | switch fluorescence ratio
67 | CAAGGCAAGG | 1.07 ± 0.018
68 | CAAGGCATGG | 1.05 ± 0.033
69 | CAAGGCATTG | 0.978 ± 0.02
70 | CAAGGGATTG | 0.992 ± 0.0058
71 | CAAGGGCCCA | 0.994 ± 0.014
72 | CAAGGGGCAA | 0.964 ± 0.032
73 | CAAGGGGTCC | 1.01 ± 0.032
74 | CAAGGGTATT | 1.01 ± 0.017
75 | CAAGGGTGGC | 1.003 ± 0.0061
76 | CAAGGTAAGT | 1.03 ± 0.056
77 | CAAGGTACGA | 1.02 ± 0.043
78 | CAAGGTCAGC | 0.9798 ± 0.0071
79 | CAAGGTTTTT | 1.01 ± 0.021
80 | CAAGTCAAAG | 0.996 ± 0.039
81 | CAAGTCTGG | 0.985 ± 0.032
82 | CAAGTGTTCG | 0.996 ± 0.03
83 | CAAGTTATAC | 1.38 ± 0.15
84 | CAAGTTGAAA | 0.9693 ± 0.0034
85 | CAAGTTTTGT | 1.01 ± 0.012
